Data from the supplement of paper PMC6757056.
± gives the standard deviation of the averaged measurements.

B1: library; a variant is named by its letters at N, in order (parent)
chain: GCUGUCACCGGUGCUUGGUACGUUAUAUUCAGCCGGUCUGAUGAGUCUNNNNNNAGACGAAACAGC

Experiments:
(6R,S)-folinic acid [1] = variants of: B1; assay: normalized RNA/DNA level without ligand (relative to sTRSVctl = 100) (log10 (% of sTRSVctl)); HEK293T overexpressing SLC46A1; higher = less ribozyme self-cleavage, higher mRNA level; details: without (6R,S)-folinic acid; ligand present: no
Procedure, shortened: (§1)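 For each 6-well well, 4 µg of library plasmid encoding mCherry-linked ribozyme switches, or eGFP-linked ones in some ligand experiments, was transfected into HEK293T. Any ligand was added 1 h before transfection, and RNA was extracted with EDTA 72 h after it, then reverse-transcribed, amplified, barcoded and sequenced. RNA level was obtained by dividing RNA reads by DNA reads, normalizing to a spiked-in non-cleaving sequence or to the top sequences, then scaling and log-transforming. The top set was 25 sequences, scaling was ×100 with log10, and ≥100 DNA reads were required.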

(6R,S)-folinic acid [2] = variants of: B1; assay: normalized RNA/DNA level with ligand (relative to sTRSVctl = 100) (log10 (% of sTRSVctl)); HEK293T overexpressing SLC46A1; ligand concentration (+) RNA-Seq: 6 mM; higher = less ribozyme self-cleavage, higher mRNA level; details: with (6R,S)-folinic acid; ligand present: yes
Procedure, shortened: as §1

Variant | normalized RNA/DNA level without ligand (log10) ((6R,S)-folinic acid [1]) | normalized RNA/DNA level with ligand (log10) ((6R,S)-folinic acid [2])
GCUGUCACCGGUGCUUGGUACGUUAUAUUCAGCCGGUCUGAUGAGUCUUUGGUUAGACGAAACAGC | 2.014 ± 0.0096 | 2.052 ± 0.019
GCUGUCACCGGUGCUUGGUACGUUAUAUUCAGCCGGUCUGAUGAGUCUUUGGUCAGACGAAACAGC | 2.047 ± 0.0021 | 2.041 ± 0.003
GCUGUCACCGGUGCUUGGUACGUUAUAUUCAGCCGGUCUGAUGAGUCUUUGGUAAGACGAAACAGC | 1.92 ± 0.021 | 1.999 ± 0.014
GCUGUCACCGGUGCUUGGUACGUUAUAUUCAGCCGGUCUGAUGAGUCUUUGGGCAGACGAAACAGC | 2.036 ± 0.0078 | 2.037 ± 0.0067
GCUGUCACCGGUGCUUGGUACGUUAUAUUCAGCCGGUCUGAUGAGUCUUUGGGAAGACGAAACAGC | 1.881 ± 0.0033 | 2.03 ± 0.039
GCUGUCACCGGUGCUUGGUACGUUAUAUUCAGCCGGUCUGAUGAGUCUAUGGGUAGACGAAACAGC | 1.82 ± 0.006 | 1.998 ± 0.0034
GCUGUCACCGGUGCUUGGUACGUUAUAUUCAGCCGGUCUGAUGAGUCUAUGGGCAGACGAAACAGC | 2.014 ± 0.0055 | 2.03 ± 0.041
GCUGUCACCGGUGCUUGGUACGUUAUAUUCAGCCGGUCUGAUGAGUCUCUGUCAAGACGAAACAGC | 2.033 ± 0.011 | 2.07 ± 0.039
GCUGUCACCGGUGCUUGGUACGUUAUAUUCAGCCGGUCUGAUGAGUCUCUGUCCAGACGAAACAGC | 2.059 ± 0.0043 | 2.043 ± 0.017
GCUGUCACCGGUGCUUGGUACGUUAUAUUCAGCCGGUCUGAUGAGUCUUUGGCGAGACGAAACAGC | 1.8766 ± 0.00065 | 2.03 ± 0.062
GCUGUCACCGGUGCUUGGUACGUUAUAUUCAGCCGGUCUGAUGAGUCUUUGGCUAGACGAAACAGC | 2.055 ± 0.0023 | 2.04 ± 0.041
GCUGUCACCGGUGCUUGGUACGUUAUAUUCAGCCGGUCUGAUGAGUCUCUGGGUAGACGAAACAGC | 2.025 ± 0.02 | 2.032 ± 0.017
GCUGUCACCGGUGCUUGGUACGUUAUAUUCAGCCGGUCUGAUGAGUCUCUGGGGAGACGAAACAGC | 1.871 ± 0.005 | 2.007 ± 0.0051
GCUGUCACCGGUGCUUGGUACGUUAUAUUCAGCCGGUCUGAUGAGUCUCUGGGCAGACGAAACAGC | 2.059 ± 0.0035 | 2.03 ± 0.03
GCUGUCACCGGUGCUUGGUACGUUAUAUUCAGCCGGUCUGAUGAGUCUAUGUCAAGACGAAACAGC | 1.979 ± 0.0033 | 2.01 ± 0.016
GCUGUCACCGGUGCUUGGUACGUUAUAUUCAGCCGGUCUGAUGAGUCUAUGUCCAGACGAAACAGC | 2.04 ± 0.026 | 2.0107 ± 0.0015
GCUGUCACCGGUGCUUGGUACGUUAUAUUCAGCCGGUCUGAUGAGUCUAUGUCGAGACGAAACAGC | 1.93 ± 0.0088 | 1.99 ± 0.027
GCUGUCACCGGUGCUUGGUACGUUAUAUUCAGCCGGUCUGAUGAGUCUGUGUAUAGACGAAACAGC | 1.962 ± 0.0048 | 2.01 ± 0.022
GCUGUCACCGGUGCUUGGUACGUUAUAUUCAGCCGGUCUGAUGAGUCUAUGUAAAGACGAAACAGC | 1.938 ± 0.011 | 2 ± 0.023
GCUGUCACCGGUGCUUGGUACGUUAUAUUCAGCCGGUCUGAUGAGUCUAUGUACAGACGAAACAGC | 1.959 ± 0.01 | 1.98 ± 0.025
GCUGUCACCGGUGCUUGGUACGUUAUAUUCAGCCGGUCUGAUGAGUCUAUGUAUAGACGAAACAGC | 1.94 ± 0.025 | 2.03 ± 0.027

Variant | normalized RNA/DNA level without ligand (log10) ((6R,S)-folinic acid [1]) | normalized RNA/DNA level with ligand (log10) ((6R,S)-folinic acid [2])
GCUGUCACCGGUGCUUGGUACGUUAUAUUCAGCCGGUCUGAUGAGUCUUUGUCCAGACGAAACAGC | 2.008 ± 0.0064 | 2.045 ± 0.02
GCUGUCACCGGUGCUUGGUACGUUAUAUUCAGCCGGUCUGAUGAGUCUUUGUCAAGACGAAACAGC | 1.976 ± 0.015 | 2.042 ± 0.0095
GCUGUCACCGGUGCUUGGUACGUUAUAUUCAGCCGGUCUGAUGAGUCUAUGGCUAGACGAAACAGC | 1.989 ± 0.011 | 2.02 ± 0.031
GCUGUCACCGGUGCUUGGUACGUUAUAUUCAGCCGGUCUGAUGAGUCUCUGUACAGACGAAACAGC | 1.992 ± 0.017 | 2.013 ± 0.013
GCUGUCACCGGUGCUUGGUACGUUAUAUUCAGCCGGUCUGAUGAGUCUCUGUAAAGACGAAACAGC | 1.958 ± 0.018 | 2.02 ± 0.037
GCUGUCACCGGUGCUUGGUACGUUAUAUUCAGCCGGUCUGAUGAGUCUCUGUAGAGACGAAACAGC | 1.925 ± 0.016 | 2.02 ± 0.041
GCUGUCACCGGUGCUUGGUACGUUAUAUUCAGCCGGUCUGAUGAGUCUGUGGUAAGACGAAACAGC | 1.913 ± 0.0048 | 1.97 ± 0.019
GCUGUCACCGGUGCUUGGUACGUUAUAUUCAGCCGGUCUGAUGAGUCUGUGGUCAGACGAAACAGC | 2.02 ± 0.023 | 2 ± 0.029
GCUGUCACCGGUGCUUGGUACGUUAUAUUCAGCCGGUCUGAUGAGUCUAUGGUCAGACGAAACAGC | 2.055 ± 0.0035 | 2.04 ± 0.029
GCUGUCACCGGUGCUUGGUACGUUAUAUUCAGCCGGUCUGAUGAGUCUGUGGGGAGACGAAACAGC | 1.94 ± 0.026 | 2.03 ± 0.028
GCUGUCACCGGUGCUUGGUACGUUAUAUUCAGCCGGUCUGAUGAGUCUGUGGGUAGACGAAACAGC | 1.98 ± 0.022 | 2 ± 0.045
GCUGUCACCGGUGCUUGGUACGUUAUAUUCAGCCGGUCUGAUGAGUCUUUGUAAAGACGAAACAGC | 1.943 ± 0.011 | 2.003 ± 0.016
GCUGUCACCGGUGCUUGGUACGUUAUAUUCAGCCGGUCUGAUGAGUCUUUGUACAGACGAAACAGC | 1.9902 ± 0.00038 | 2.02 ± 0.045
GCUGUCACCGGUGCUUGGUACGUUAUAUUCAGCCGGUCUGAUGAGUCUGUGUCCAGACGAAACAGC | 1.97 ± 0.011 | 1.99 ± 0.034
GCUGUCACCGGUGCUUGGUACGUUAUAUUCAGCCGGUCUGAUGAGUCUCUGGUAAGACGAAACAGC | 1.95 ± 0.023 | 1.98 ± 0.034
GCUGUCACCGGUGCUUGGUACGUUAUAUUCAGCCGGUCUGAUGAGUCUCUGGUCAGACGAAACAGC | 2.057 ± 0.0038 | 2.04 ± 0.044
GCUGUCACCGGUGCUUGGUACGUUAUAUUCAGCCGGUCUGAUGAGUCUCUGGUUAGACGAAACAGC | 1.97 ± 0.04 | 1.99 ± 0.046
GCUGUCACCGGUGCUUGGUACGUUAUAUUCAGCCGGUCUGAUGAGUCUCUGGUGAGACGAAACAGC | 1.982 ± 0.0025 | 2.04 ± 0.037
GCUGUCACCGGUGCUUGGUACGUUAUAUUCAGCCGGUCUGAUGAGUCUGUGGCGAGACGAAACAGC | 1.993 ± 0.0028 | 2.015 ± 0.0038
GCUGUCACCGGUGCUUGGUACGUUAUAUUCAGCCGGUCUGAUGAGUCUGUGGCUAGACGAAACAGC | 2.047 ± 0.0085 | 2.06 ± 0.028
